Assay results: US20190030114

T1: striatal-enriched protein tyrosine phosphatase (STEP), P54830
T1 chain: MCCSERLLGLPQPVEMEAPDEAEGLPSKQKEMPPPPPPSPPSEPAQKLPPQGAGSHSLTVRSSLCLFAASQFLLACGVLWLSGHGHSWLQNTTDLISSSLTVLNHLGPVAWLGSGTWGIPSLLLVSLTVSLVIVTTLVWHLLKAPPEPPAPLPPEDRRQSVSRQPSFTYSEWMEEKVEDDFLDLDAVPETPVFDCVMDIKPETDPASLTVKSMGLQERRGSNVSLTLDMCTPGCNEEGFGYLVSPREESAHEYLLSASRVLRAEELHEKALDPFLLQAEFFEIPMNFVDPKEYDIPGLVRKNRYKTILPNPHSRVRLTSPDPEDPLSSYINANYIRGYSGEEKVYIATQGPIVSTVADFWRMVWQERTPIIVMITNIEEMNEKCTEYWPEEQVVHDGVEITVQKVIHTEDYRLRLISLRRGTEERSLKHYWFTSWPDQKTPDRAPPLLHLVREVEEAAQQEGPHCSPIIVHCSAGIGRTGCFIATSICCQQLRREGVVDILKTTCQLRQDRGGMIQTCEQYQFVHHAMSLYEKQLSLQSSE


What was measured:
[1] = molecular target: T1, striatal-enriched protein tyrosine …

Protein | STEP33 (cleavage product of STEP), Western blot of retina 3 h after IOP elevation [1] | SBDP levels, immunoblot of mouse retinal extracts 6 h after intravitreal NMDA injection (spectrin, P16546)
calpain-1 (µ-calpain), Mus musculus (protein) MTEELITPVYCTGVSAQVQKKRDKELGLGRHENAIKYLGQDYETLRARCLQSGVLFQDEAFPPVSHSLGFKELGPHSSKTYGIKWKRPTELMSNPQFIVDGATRTDICQGALGDCWLLAAIASLTLNETILHRVVPYGQSFQDGYAGIFHFQLWQFGEWVDVVIDDLLPTKDGKLVFVHSAQGNEFWSALLEKAYAKVNGSYEALSGGCTSEAFEDFTGGVTEWYDLQKAPSDLYQIILKALERGSLLGCSINISDIRDLEAITFKNLVRGHAYSVTGAKQVTYQGQRVNLIRMRNPWGEVEWKGPWSDSSYEWNKVDPYEREQLRVKMEDGEFWMSFRDFIREFTKLEICNLTPDALKSRTLRNWNTTFYEGTWRRGSTAGGCRNYPATFWVNPQFKIRLEEVDDADDYDNRESGCSFLLALMQKHRRRERRFGRDMETIGFAVYQVPRELAGQPVHLKRDFFLANASRAQSEHFINLREVSNRIRPPPGEYIVVPSTFEPNKEGDFLLRFFSEKKAGTQELDDQIQANLPDEKVLSEEEIDDNFKTLFSKLAGDDMEISVKELQTILNRIISKHKDLRTNGFSLESCRSMVNLMDRDGNGKLGLVEFNILWNRIRNYLTIFRKFDLDKSGSMSAYEMRMAIEAAGFKLNKKLHELIITRYSEPDLAVDFDNFVCCLVRLETMFRFFKLLDTDLNGVVTFDLFKWLQLTMFA | STEP33 was present in WT and calpain-1 KO mice (no part of calpain-1) | –
calpain-2 (m-calpain), Mus musculus (protein) SHERAIKYLNQDYETLRNECLEAGALFQDPSFPALPSSLGYKELGPYSSKTRGIEWKRPTEICADPQFIIGGATRTDICQGALGDCWLLAAIASLTLNEEILARVVPPDQSFQENYAGIFHFQFWQYGEWVEVVVDDRLPTKDGELLFVHSAEGSEFWSALLEKAYAKINGCYETLSGGATTEGFEDFTGGIAEWYELRKPPPNLFKIIQKALEKGSLLGCSIDITSAADSEAVTYQKLVKGHAYSVTGAEEVESSGSLQKLIRIRNPWGQVEWTGKWNDNCPSWNTVDPEVRANLTERQEDGEFWMSFSDFLRHYSRLEICNLTPDTLTCDSYKKWKLTKMDGNWRRGSTAGGCRNYPNTFWMNPQYLIKLEEEDEDEEDGGRGCTFLVGLIQKHRRRQRKMGEDMHTIGFGIYEVPEELTGQTNIHLGKNFFLTTRARERSDTFINLREVLNRFKLPPGEYVLVPSTFEPHKDGDFCIRVFSEKKADYQAVDDEIEANIEEIDANEEDIDDGFRRLFVQLAGEDAEISAFELQTILRRVLAKRQDIKSDGFSIETCKIMVDMLDEDGSGKLGLKEFYILWTKIQKYQKIYREIDVDRSGTMNSYEMRKALEEAGFKLPCQLHQVIVARFADDELIIDFDNFVRCLVRLETLFKIFKQLDPENTGTIQLNLASWLSFSVL | STEP33 was present in WT and calpain-1 KO mice but not in C2l-injected WT mice following increased IOP | Levels of SBDP were significantly increased; injection of C2l significantly suppressed NMDA-induced changes in SBDP
